Data set [1] deals with T1, B. subtilis FtsZ with a 15-residue recombinant N-terminal T7 epitope tag (B. subtilis, UniProt P17865 1-382).
T1 sequence (looked up): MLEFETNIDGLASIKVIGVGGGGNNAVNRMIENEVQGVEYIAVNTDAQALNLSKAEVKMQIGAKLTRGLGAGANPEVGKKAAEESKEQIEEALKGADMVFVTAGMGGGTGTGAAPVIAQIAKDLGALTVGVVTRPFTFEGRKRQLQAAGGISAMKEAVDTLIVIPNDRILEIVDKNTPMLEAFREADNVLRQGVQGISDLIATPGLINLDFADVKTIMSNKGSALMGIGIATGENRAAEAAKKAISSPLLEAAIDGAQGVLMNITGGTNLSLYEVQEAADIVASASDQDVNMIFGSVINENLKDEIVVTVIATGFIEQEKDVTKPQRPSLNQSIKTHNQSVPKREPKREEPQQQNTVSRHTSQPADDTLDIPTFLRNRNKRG
The data set is described as follows: cross-linking.

Data set [2] deals with the molecule itself. The data set is described as follows: crystal structure.
Data set [3] deals with the molecule itself. The data set is described as follows: SEC-MALS. For orientation: Size exclusion chromatography separates by hydrodynamic size, large species first.
For data set [4], the target named is T2, B. subtilis FtsZ, untagged (B. subtilis, UniProt P17865 1-382).
T2 sequence: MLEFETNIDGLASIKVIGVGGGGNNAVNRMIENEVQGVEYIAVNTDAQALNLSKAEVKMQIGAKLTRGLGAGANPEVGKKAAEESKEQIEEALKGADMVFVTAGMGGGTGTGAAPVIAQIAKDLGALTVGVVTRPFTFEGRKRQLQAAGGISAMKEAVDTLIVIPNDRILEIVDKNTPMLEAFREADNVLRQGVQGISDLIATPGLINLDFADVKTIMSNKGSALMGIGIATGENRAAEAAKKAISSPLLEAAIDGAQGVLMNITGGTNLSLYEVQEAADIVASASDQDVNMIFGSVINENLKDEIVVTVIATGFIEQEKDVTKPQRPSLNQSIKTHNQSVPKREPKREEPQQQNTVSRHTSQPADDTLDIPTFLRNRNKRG
As to the kind of experiment: SPR. (Surface plasmon resonance follows binding to a sensor surface in real time, without labels.)

B1: B. subtilis EzrA cytoplasmic domain lacking the N-terminal 21 residue trans-membrane helix, BsEzrA_(22-562) (domain or fragment, UniProt O34894 22-562, looked up)
chain: RKKIYAEIDRLESWKIEILNRSIVEEMSKIKHLKMTGQTEEFFEKWREEWDEIVTAHMPKVEELLYDAEENADKYRFKKANQVLVHIDDLLTAAESSIEKILREISDLVTSEEKSREEIEQVRERYSKSRKNLLAYSHLYGELYDSLEKDLDEIWSGIKQFEEETEGGNYITARKVLLEQDRNLERLQSYIDDVPKLLADCKQTVPGQIAKLKDGYGEMKEKGYKLEHIQLDKELENLSNQLKRAEHVLMTELDIDEASAILQLIDENIQSVYQQLEGEVEAGQSVLSKMPELIIAYDKLKEEKEHTKAETELVKESYRLTAGELGKQQAFEKRLDEIGKLLSSVKDKLDAEHVAYSLLVEEVASIEKQIEEVKKEHAEYRENLQALRKEELQARETLSNLKKTISETARLLKTSNIPGIPSHIQEMLENAHHHIQETVNQLNELPLNMEEAGAHLKQAEDIVNRASRESEELVEQVILIEKIIQFGNRFRSQNHILSEQLKEAERRFYAFDYDDSYEIAAAAVEKAAPGAVEKIKADISA
As for B1, the “stoichiometry N” value in data set [1] was 1 EzrA:FtsZ. In addition, the binding result in data set [2] is listed as “binds”.

B2: BsEzrA_(22–217), spectrin repeats one and two of B. subtilis EzrA (domain or fragment, UniProt O34894 22-217, looked up)
chain: RKKIYAEIDRLESWKIEILNRSIVEEMSKIKHLKMTGQTEEFFEKWREEWDEIVTAHMPKVEELLYDAEENADKYRFKKANQVLVHIDDLLTAAESSIEKILREISDLVTSEEKSREEIEQVRERYSKSRKNLLAYSHLYGELYDSLEKDLDEIWSGIKQFEEETEGGNYITARKVLLEQDRNLERLQSYIDDVPK
In general, Kd refers to the free concentration of one partner at which half of the binding sites on the other are occupied at equilibrium, for simple one-to-one binding. A high value points to lower affinity. B2: the binding result in data set [3] is given as “binds”. Besides, the equilibrium dissociation constant (Kd) in data set [4] is 13.7 ± 1.5 µM.

Source of the values: article PMC4243239 (Nature communications, 2014).
